Laboratory results taken from paper PMC2630241.
“And” between values parts separate entries of the source, which are not always exact repeats. Equal values may be shown once.

Tests used:
[1] = biological target: TRPM7 coiled-coil assembly domain (TRPM7cc), rat TRPM7 residues 1230-1282 (rat) (UniProt Q925B3); test: SEC
[2] = biological target: TRPM7 coiled-coil assembly domain (TRPM7cc), rat TRPM7 residues 1230-1282 (rat) (UniProt Q925B3); test: AUC
[3] = biological target: TRPM7 coiled-coil assembly domain (TRPM7cc), rat TRPM7 residues 1230-1282 (rat) (UniProt Q925B3); test: crystal structure
[4] = biological target: Selenomethionine substituted TRPM7cc (rat) (UniProt Q925B3); test: crystal structure

| stoichiometry N [1] | stoichiometry N [2] | stoichiometry N [3] | stoichiometry N [4] | Substance |
| --- | --- | --- | --- | --- |
| 4 | 4.1 and 3.7 | 4 |  | TRPM7 coiled-coil assembly domain (TRPM7cc), rat TRPM7 residues 1230-1282 (from UniProt Q925B3 1230-1282) (domain or fragment) |
|  |  |  | 4 | Selenomethionine substituted TRPM7cc (from UniProt Q925B3 1230-1282) (domain or fragment) |
